# Source: publication PMC4210636 (Chemistry & Biology, 2014)
# T1: ADAMTS-5 lacking the C-terminal thrombospondin domain (UniProt Q9UNA0 262-874)
# T1 sequence (looked up): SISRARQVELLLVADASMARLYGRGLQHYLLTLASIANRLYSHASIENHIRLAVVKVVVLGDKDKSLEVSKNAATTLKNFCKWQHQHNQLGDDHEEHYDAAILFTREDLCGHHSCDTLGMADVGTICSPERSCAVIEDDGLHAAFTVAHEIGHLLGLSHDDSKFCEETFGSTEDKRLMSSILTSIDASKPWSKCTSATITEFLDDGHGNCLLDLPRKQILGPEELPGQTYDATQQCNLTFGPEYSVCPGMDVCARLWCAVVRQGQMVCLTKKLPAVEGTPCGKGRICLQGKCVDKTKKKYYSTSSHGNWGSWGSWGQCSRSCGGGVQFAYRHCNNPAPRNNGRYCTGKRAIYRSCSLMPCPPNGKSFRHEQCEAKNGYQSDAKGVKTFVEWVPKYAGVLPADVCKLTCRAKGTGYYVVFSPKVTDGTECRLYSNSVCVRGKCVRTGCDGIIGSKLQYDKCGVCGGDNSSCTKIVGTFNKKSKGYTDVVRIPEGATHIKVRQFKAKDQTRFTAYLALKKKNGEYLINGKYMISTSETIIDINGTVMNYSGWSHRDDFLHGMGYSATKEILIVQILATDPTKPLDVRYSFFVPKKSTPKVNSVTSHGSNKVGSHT
# B1: C-terminally FLAG-tagged human TIMP-3 (tissue inhibitor of metalloproteinases 3) (natural protein, UniProt P35625 24-211, looked up)
# chain: CTCSPSHPQDAFCNSDIVIRAKVVGKKLVKEGPFGTLVYTIKQMKMYRGFTKMPHVQYIHTEASESLCGLKLEVNKYQYLLTGRVYDGKMYTGLCNFVERWDQLTLSQRKGLNYRYHLGCNCKIKSCYYLPCFVTSKNECLWTDMLSNFGYPGYQSKHYACIRQKGGYCSWYRGWAPPDKSIINATDP
# Key:
# [1] = target: T1, ADAMTS-5 lacking the C-terminal …; test: steady-state enzyme inhibition kinetics
# [2] = target: LRP-1 ectodomain (low-density lipoprotein receptor-related protein 1) (UniProt Q07954 20-4419); test: ELISA
# LRP-1 ectodomain (low-density lipoprotein receptor-related protein 1), sequence (Q07954 20-4419): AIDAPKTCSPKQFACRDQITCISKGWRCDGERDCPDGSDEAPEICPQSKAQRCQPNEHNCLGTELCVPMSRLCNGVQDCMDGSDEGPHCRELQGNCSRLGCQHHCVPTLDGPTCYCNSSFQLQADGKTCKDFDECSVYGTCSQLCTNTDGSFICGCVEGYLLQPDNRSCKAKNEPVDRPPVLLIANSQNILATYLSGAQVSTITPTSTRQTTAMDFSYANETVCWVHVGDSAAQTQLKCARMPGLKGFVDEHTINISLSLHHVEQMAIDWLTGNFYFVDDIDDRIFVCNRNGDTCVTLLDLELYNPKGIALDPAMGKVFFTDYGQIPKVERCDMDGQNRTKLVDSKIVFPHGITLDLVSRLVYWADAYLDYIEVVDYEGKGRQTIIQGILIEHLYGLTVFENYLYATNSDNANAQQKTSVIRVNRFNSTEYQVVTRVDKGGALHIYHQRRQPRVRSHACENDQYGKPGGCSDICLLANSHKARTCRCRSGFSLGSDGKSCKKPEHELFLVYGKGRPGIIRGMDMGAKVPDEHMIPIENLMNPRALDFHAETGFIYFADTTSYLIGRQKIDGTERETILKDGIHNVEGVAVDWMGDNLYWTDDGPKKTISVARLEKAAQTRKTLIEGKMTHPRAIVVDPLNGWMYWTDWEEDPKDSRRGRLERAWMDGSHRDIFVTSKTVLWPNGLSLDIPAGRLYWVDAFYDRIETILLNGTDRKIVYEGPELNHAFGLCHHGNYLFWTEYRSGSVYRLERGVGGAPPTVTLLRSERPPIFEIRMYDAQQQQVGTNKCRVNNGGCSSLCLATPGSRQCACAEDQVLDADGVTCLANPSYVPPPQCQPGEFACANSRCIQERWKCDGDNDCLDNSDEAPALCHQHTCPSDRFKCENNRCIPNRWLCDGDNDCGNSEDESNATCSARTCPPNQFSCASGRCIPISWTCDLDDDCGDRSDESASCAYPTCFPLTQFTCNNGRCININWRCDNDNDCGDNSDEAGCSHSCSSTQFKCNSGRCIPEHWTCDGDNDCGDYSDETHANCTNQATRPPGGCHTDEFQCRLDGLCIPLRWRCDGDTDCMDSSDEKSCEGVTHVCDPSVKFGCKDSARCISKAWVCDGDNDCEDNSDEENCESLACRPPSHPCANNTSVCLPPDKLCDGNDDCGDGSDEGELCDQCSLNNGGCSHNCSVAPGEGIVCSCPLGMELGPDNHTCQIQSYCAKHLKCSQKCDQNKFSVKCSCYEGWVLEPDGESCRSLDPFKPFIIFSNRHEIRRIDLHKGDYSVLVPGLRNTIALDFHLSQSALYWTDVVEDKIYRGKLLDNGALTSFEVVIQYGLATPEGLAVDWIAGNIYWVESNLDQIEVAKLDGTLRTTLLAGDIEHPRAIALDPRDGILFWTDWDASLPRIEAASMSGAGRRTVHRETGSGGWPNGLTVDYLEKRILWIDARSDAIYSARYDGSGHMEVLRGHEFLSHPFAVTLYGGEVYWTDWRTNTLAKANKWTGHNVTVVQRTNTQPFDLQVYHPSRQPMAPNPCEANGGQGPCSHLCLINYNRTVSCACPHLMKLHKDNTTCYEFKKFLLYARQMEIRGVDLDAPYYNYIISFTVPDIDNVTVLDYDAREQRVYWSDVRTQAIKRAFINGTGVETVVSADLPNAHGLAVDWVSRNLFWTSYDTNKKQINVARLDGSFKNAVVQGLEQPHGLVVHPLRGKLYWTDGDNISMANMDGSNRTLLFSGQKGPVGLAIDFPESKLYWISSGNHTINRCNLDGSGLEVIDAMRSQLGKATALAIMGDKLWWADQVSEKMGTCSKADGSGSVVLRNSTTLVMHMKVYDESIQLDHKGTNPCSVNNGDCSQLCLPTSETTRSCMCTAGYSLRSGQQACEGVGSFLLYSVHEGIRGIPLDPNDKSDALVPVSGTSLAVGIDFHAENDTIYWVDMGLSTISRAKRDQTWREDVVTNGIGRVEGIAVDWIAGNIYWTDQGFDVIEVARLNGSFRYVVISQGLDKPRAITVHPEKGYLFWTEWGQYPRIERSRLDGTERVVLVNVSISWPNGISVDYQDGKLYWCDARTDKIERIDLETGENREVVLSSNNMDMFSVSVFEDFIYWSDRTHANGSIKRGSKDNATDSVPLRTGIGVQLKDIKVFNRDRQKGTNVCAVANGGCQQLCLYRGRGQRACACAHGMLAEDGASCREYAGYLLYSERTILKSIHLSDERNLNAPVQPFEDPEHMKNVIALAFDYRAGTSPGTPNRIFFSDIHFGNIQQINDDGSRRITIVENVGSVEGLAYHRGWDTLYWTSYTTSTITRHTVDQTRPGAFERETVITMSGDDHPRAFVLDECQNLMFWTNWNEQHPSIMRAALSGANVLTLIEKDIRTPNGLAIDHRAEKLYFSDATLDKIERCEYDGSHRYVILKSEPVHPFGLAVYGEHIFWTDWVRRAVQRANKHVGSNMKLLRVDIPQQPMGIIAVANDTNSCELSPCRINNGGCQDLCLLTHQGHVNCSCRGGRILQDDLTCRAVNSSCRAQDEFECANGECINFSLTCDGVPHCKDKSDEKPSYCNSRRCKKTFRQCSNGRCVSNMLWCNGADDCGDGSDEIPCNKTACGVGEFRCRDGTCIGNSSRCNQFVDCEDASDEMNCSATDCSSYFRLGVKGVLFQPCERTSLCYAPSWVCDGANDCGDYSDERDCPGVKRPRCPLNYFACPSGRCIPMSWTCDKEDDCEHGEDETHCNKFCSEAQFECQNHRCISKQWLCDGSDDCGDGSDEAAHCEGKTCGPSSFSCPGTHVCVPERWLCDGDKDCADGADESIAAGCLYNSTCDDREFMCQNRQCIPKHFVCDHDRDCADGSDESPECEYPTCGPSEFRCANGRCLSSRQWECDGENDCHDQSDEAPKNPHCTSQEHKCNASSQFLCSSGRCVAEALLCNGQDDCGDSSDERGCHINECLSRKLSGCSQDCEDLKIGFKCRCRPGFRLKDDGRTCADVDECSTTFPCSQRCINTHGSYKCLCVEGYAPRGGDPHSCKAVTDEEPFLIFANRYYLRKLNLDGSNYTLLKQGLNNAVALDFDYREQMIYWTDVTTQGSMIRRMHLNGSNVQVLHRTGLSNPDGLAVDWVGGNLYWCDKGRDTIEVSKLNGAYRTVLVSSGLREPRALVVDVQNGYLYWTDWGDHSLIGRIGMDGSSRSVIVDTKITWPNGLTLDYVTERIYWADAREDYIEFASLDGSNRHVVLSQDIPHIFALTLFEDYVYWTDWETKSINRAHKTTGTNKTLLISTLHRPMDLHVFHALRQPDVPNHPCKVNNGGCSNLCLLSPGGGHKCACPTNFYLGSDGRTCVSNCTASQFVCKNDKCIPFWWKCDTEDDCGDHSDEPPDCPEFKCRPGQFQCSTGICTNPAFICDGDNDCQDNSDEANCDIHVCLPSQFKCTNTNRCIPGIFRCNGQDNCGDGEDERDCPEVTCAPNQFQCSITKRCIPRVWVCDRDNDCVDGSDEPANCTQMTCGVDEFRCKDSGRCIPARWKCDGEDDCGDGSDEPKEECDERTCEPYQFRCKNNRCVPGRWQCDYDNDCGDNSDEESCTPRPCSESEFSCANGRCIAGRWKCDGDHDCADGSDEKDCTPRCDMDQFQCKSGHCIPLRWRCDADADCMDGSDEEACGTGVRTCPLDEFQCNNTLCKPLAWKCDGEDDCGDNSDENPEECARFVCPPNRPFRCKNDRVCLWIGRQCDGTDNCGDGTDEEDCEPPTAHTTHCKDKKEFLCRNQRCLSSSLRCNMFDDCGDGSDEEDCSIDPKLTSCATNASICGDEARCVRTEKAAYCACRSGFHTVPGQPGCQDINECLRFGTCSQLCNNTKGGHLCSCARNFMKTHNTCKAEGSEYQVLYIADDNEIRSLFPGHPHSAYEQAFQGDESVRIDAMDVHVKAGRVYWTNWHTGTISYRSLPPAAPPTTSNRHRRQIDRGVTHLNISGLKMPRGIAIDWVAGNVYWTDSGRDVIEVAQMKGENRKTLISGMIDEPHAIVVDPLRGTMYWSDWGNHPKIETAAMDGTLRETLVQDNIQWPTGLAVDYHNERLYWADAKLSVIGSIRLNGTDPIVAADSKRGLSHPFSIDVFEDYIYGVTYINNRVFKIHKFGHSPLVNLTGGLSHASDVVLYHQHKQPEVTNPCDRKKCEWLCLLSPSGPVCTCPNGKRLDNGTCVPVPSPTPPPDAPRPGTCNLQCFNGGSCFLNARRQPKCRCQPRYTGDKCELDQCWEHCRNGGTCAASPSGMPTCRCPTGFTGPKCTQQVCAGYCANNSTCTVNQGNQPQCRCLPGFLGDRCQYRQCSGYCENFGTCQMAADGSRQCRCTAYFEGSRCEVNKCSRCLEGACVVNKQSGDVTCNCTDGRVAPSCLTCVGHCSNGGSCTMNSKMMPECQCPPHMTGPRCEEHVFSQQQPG
binder,measurement,setting,value
B1,Ki,[1],1.36 ± 0.02 nM
same,Kd,[2],28 ± 6 nM
